Test results: the nanobody polyreactivity screen of Harvey et al. (2022)

Test: yeast display, Sf9 membrane polyspecificity reagent, FACS + sequencing; frameworks hold sequencing errors
Procedure, shortened: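 Nanobodies from a synthetic yeast display library (Saccharomyces cerevisiae BJ5465), induced 36–48 hours with galactose, were stained 1 hour at 4 °C with 10% biotinylated, detergent-solubilized Sf9 membrane reagent, enriched on streptavidin microbeads, then FACS-sorted. Anti-HA (expression) and streptavidin (reagent binding) fluorescence set low and high (top ~1%) gates. Polyreactivity labels come from the gate of origin. Genes were colony-PCR amplified, MiSeq 2 × 250 sequenced and filtered by CDR length.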

| Sequence | polyreactivity (PSR sort gate) |
| --- | --- |
| QVQLVESGGGLVQAGGSLRLSCAASGRIFIRNAMGWYRPAPGKERELVAAITQSGGSTYYADSVKGRFTISRDNAKNTVYLQMNSLKPEDTAVYYCAADGDNPYLHEEDYWGQGTQVTVSS | high polyreactivity |
| QVQLVESGGGLVQAGGSLRLSCAASGRIFIRYAMGWYRQAPGKERELVAAISRSGGSTYYADSVKGRITISRDNAKNTVYLQMNSLKPEDTAVYYCAAVSSSTWLEYYYWGQGTQVTVSS | high polyreactivity |
| QVQLVESGGGLVQAGGSLRLSCAASGRIFIRYAMGWYRQAPGKERELVAVITTGGSTNADSVKGRFTISRDNAKNTVYLQMNSVKPEDTAVYYCNAKVRVYTRGYFRYWYDYWGQGTQVTVSS | high polyreactivity |
| QVQLVESGGGLVQAGGSLRLSCAASGRIFITNAMGWYRQAPGKERELVAAIRRRGGNTYYADSVKGRFTISRDNANNTVYLQINSLKPEDTAVYYCAVYPRPYKYNYWGQGTQVTVSS | high polyreactivity |
| QVQLVESGGGLVQAGGSLRLSCAASGRIFITNTMGWYRQAPGKERELVAAISRTGGSTYYADSVKGRFTISRDNAKNTVYLQMNSLKPEDTAVYYCNADWYGQLWWGVDYWGQGTQVTVSS | high polyreactivity |
| QVQLVESGGGLVQAGGSLRLSCAASGRIFIVYVMVWYRQAPGKESELVAAITGRGGSTYYADSVKGRFTISHDNAKNTVYLQMNSLKPEDTAVYYCDDYDGGGYDSWGQGNQVTVSS | low polyreactivity |
| QVQLVESGGGLVQAGGSLRLSCAASGRIFIWYGMGWYRQAPGKERELVADISSTGSTNYADSVKGRFTISRDNAKNTVYLQMNSLKPEDTAVYYCAADPETPYYTTYDYDYWGQGTQVTVSS | low polyreactivity |
| QVQLVESGGGLVQAGGSLRLSCAASGRIFIYNAMGWSRQAPGIERELVARIRDRGDSTNYADSVKGRFTISRDNAKNTVYLQMNSLKPEDTAVYYCAAQPWLRYYYWGQGTQVTVSS | low polyreactivity |
| QVQLVESGGGLVQAGGSLRLSCAASGRIFIYYAMGRYRQAPGKERELVAGIDYSGGSTYYADSVKGRFTISRDNAKNTVYLQMNSLKPEDTAVYFCAAGKYRHYYGRSFYRFDYWGKGTQVTVSS | high polyreactivity |
| QVQLVESGGGLVQAGGSLRLSCAASGRIFIYYTMGWYRQAPGKERELVAAINSGGSTKYADSVKGRFTISRDNAKNTVYLQMNSLKPEDTAVYYCARRGGFSYYYWGQGTQVTVSS | high polyreactivity |
| QVQLVESGGGLVQAGGSLRLSCAASGRIFKGYAMGWYRQAPGKERELVAAITWRGGTTYYADSVKGRFTISRDNAKNTVYLQMNSLKPEDTAVYYCATTRYPRSYDYYYWGQGTQVTVSS | high polyreactivity |
| QVQLVESGGGLVQAGGSLRLSCAASGRIFKLYAMGWYRQAPGKERELVAAISKSGGNTYADSVKGRFTISRDNAKNPVYLQMNSLKPEDTAVYYCAATVQSTSDPFDYLGQGTQVTVSS | low polyreactivity |
| QVQLVESGGGLVQAGGSLRLSCAASGRIFKLYAMGWYRQAPGKERELVAAISTSAGSTNYADSVKGRFTISRDNSKNTVYLQMNSLKPEDTAVYYCAVAGVSTYYTYYYWGQGTQVTVSS | low polyreactivity |
| QVQLVESGGGLVQAGGSLRLSCAASGRIFKLYARGWYRQAPGKERELVAAITSGGRTNYADSVKGRFTISRDNAKNTVYLQMNSLKPEDTAVYYCAARYYIVSLGSGYWGQGTQVTVSS | high polyreactivity |
| QVQLVESGGGLVQAGGSLRLSCAASGRIFKNNAMGWYRQAPGKERELVAAITWRSGRTYYADSVKGRFTISRDNAKNTVYLQMNSLKAEDTAVYYCAKQVFGYGIVNNGDYWGQGTQVTVSS | high polyreactivity |
| QVQLVESGGGLVQAGGSLRLSCAASGRIFKPYVMGWYRQAPGKERELVASITWNGGRTYYADSVKGRFTISRDNAKNTVYLQMNSLKPEDTAVYYCAADYWTTADPRNIIKYDYWGQGTQVTVSS | high polyreactivity |
| QVQLVESGGGLVQAGGSLRLSCAASGRIFKRNAMGWYRQAPGNERELVAAINWSGGSTYYADSVKGRFTISRDTAKNTVYLQMNSLKPEDTAVYYCAALRVQGDYDYWGQGTQVTVSS | high polyreactivity |
